Laboratory results: paper PMC4755762

Legend:
[1] = target: CR3 chimera with residues 686 to 1152 of CD11b replaced by the corresponding segment of CD11c, with CD18, on CHO cells (human) (UniProt P11215); assay: flow cytometry on cells
[2] = target: CR3 chimera with residues 33 to 115 of CD11b replaced by the corresponding segment of CD11c, with CD18, on CHO cells (human) (UniProt P11215); assay: flow cytometry on cells
[3] = target: CD11b_(342-424c)/CD18 chimera on CHO cells (human) (UniProt P11215); assay: flow cytometry on cells
[4] = target: CD11b_(614-682c)/CD18 chimera on CHO cells (human) (UniProt P11215); assay: flow cytometry on cells
[5] = target: CD11c_(614-682b)-YFP/CD18 chimera on CHO cells (human) (UniProt P11215); assay: flow cytometry on cells; 2x10^5 CHO cells expressing YFP-fused integrins with different concentrations of CyaA-biotin; streptavidin-PE; mean fluorescence intensities against CyaA concentration

Substance: adenylate cyclase toxin-hemolysin (CyaA) of Bordetella pertussis, intact (from UniProt P0DKX7 1-1706) (natural protein)
- CyaA binding, percent of binding to intact CD11b/CD18 [1]: 89%
- CyaA binding, percent of binding to intact CD11b/CD18 [2]: 72%
- CyaA binding, percent of binding to intact CD11b/CD18 [3]: 61%
- fold decrease of CyaA binding against intact CR3 [4]: 10 fold
- fold higher CyaA binding than CD11c-YFP/CD18 [5]: 24 fold
- fold lower CyaA binding than CD11b-YFP/CD18 [5]: 1.7 fold
